Converted amounts (≈) assume the structure as drawn.
Tests used:
[1] = test system: Escherichia coli; assay: Antimicrobial activity against Escherichia coli ATCC 35218; type: functional
[2] = test system: Mycobacterium tuberculosis; assay: Antibacterial activity against Mycobacterium tuberculosis H37Rv ATCC 27294 incubated for 7 days by microplate alamar blue assay; type: functional; conditions: 168 h, time 7 day
[3] = biological target: T1, Enoyl-[acyl-carrier-protein] reductase [NADH] FabI (Escherichia coli K-12, UniProt P0AEK4); assay: Inhibition of Escherichia coli FabI using trans-2-[…]-N-acetylcysteamine as substrate by spectrophotometry
T1 sequence (P0AEK4 whole entry): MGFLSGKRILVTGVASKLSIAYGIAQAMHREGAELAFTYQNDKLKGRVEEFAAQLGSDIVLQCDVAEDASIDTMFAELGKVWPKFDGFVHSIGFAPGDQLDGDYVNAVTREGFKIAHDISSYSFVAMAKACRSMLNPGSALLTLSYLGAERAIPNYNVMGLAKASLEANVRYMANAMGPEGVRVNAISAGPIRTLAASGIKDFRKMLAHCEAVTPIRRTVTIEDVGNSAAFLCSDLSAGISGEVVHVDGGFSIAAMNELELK

[4] = test system: Escherichia coli; assay: Antimicrobial activity against Escherichia coli W3110 imp4213 assessed as absence of growth; type: functional
[5] = test system: Escherichia coli; assay: Antimicrobial activity against Escherichia coli W3110 imp4213 expressing pCA24N mutant assessed as absence of growth; type: functional
[6] = test system: Escherichia coli; assay: Antimicrobial activity against Escherichia coli W3110 imp4213 expressing fabI G93V mutant assessed as absence of growth; type: functional
[7] = test system: Escherichia coli; assay: Antimicrobial activity against Escherichia coli W3110 imp4213 expressing pCA24N-fabI mutant assessed as absence of growth; type: functional
[8] = test system: Escherichia coli; assay: Antimicrobial activity against Escherichia coli W3110 imp4213 expressing pCA24N-fab/ Y156V mutant assessed as absence of growth; type: functional
[9] = test system: Escherichia coli; assay: Antimicrobial activity against Escherichia coli W3110 imp4213 expressing pCA24N-fab F203L mutant assessed as absence of growth; type: functional
[10] = test system: Escherichia coli; assay: Antimicrobial activity against Escherichia coli W3110 imp4213 expressing pCA24N-fab F204V mutant assessed as absence of growth; type: functional
[11] = test system: Escherichia coli; assay: Antimicrobial activity against Escherichia coli W3110 imp4213 expressing fabI392 mutant assessed as absence of growth; type: functional
[12] = test system: Escherichia coli; assay: Antibacterial activity against Escherichia coli BW25113 assessed as effect on growth rate per hour at 0.128 uM incubated for 24 hrs by microplate reader; type: functional
[13] = test system: Staphylococcus aureus; assay: Antimicrobial activity against Staphylococcus aureus assessed as complete inhibition of growth after 24 hrs by broth microdilution method; type: functional
[14] = Inhibition of Staphylococcus aureus FabI assessed as incorporation of [1-14C]acetate to L-[U-14C]leucine
[15] = compound: NC(=O)C1=CN([C@@H]2O[C@H](COP(=O)(O)OP(=O)(O)OC[C@H]3O[C@@H](n4cnc5c(N)ncnc54)[C@H](O)[C@@H]3O)[C@@H](O)[C@H]2O)C=CC1; assay: Inhibition of wild-type Escherichia coli FabI catalytic activity
[16] = compound: NC(=O)C1=CN([C@@H]2O[C@H](COP(=O)(O)OP(=O)(O)OC[C@H]3O[C@@H](n4cnc5c(N)ncnc54)[C@H](O)[C@@H]3O)[C@@H](O)[C@H]2O)C=CC1; assay: Inhibition of wild-type Escherichia coli FabI assessed as reduction in Km
[17] = compound: NC(=O)C1=CN([C@@H]2O[C@H](COP(=O)(O)OP(=O)(O)OC[C@H]3O[C@@H](n4cnc5c(N)ncnc54)[C@H](O)[C@@H]3O)[C@@H](O)[C@H]2O)C=CC1; assay: Inhibition of wild-type Escherichia coli FabI assessed as ratio of Kcat/Km
[18] = compound: NC(=O)C1=CN([C@@H]2O[C@H](COP(=O)(O)OP(=O)(O)OC[C@H]3O[C@@H](n4cnc5c(N)ncnc54)[C@H](O)[C@@H]3O)[C@@H](O)[C@H]2O)C=CC1; assay: Inhibition of Escherichia coli FabI F203V mutant catalytic activity
[19] = compound: NC(=O)C1=CN([C@@H]2O[C@H](COP(=O)(O)OP(=O)(O)OC[C@H]3O[C@@H](n4cnc5c(N)ncnc54)[C@H](O)[C@@H]3O)[C@@H](O)[C@H]2O)C=CC1; assay: Inhibition of Escherichia coli FabI F203V mutant assessed as reduction in Km
[20] = compound: NC(=O)C1=CN([C@@H]2O[C@H](COP(=O)(O)OP(=O)(O)OC[C@H]3O[C@@H](n4cnc5c(N)ncnc54)[C@H](O)[C@@H]3O)[C@@H](O)[C@H]2O)C=CC1; assay: Inhibition of Escherichia coli FabI F203V mutant assessed as ratio of Kcat/Km
[21] = compound: NC(=O)C1=CN([C@@H]2O[C@H](COP(=O)(O)OP(=O)(O)OC[C@H]3O[C@@H](n4cnc5c(N)ncnc54)[C@H](O)[C@@H]3O)[C@@H](O)[C@H]2O)C=CC1; assay: Inhibition of Escherichia coli FabI G93V mutant catalytic activity
[22] = compound: NC(=O)C1=CN([C@@H]2O[C@H](COP(=O)(O)OP(=O)(O)OC[C@H]3O[C@@H](n4cnc5c(N)ncnc54)[C@H](O)[C@@H]3O)[C@@H](O)[C@H]2O)C=CC1; assay: Inhibition of Escherichia coli FabI G93V mutant assessed as reduction in Km
[23] = compound: NC(=O)C1=CN([C@@H]2O[C@H](COP(=O)(O)OP(=O)(O)OC[C@H]3O[C@@H](n4cnc5c(N)ncnc54)[C@H](O)[C@@H]3O)[C@@H](O)[C@H]2O)C=CC1; assay: Inhibition of Escherichia coli FabI G93V mutant assessed as ratio of Kcat/Km
[24] = compound: CC(C)=CCC[C@@H](C)c1ccc(C)c(O)c1; assay: Uncompetitive inhibition of Escherichia coli FabI G93V mutant assessed inhibition constant using NADH as substrate by Lineweaver-Burk analysis
[25] = compound: NC(=O)C1=CN([C@@H]2O[C@H](COP(=O)(O)OP(=O)(O)OC[C@H]3O[C@@H](n4cnc5c(N)ncnc54)[C@H](O)[C@@H]3O)[C@@H](O)[C@H]2O)C=CC1; assay: Inhibition of Escherichia coli FabI F203L mutant catalytic activity
[26] = compound: NC(=O)C1=CN([C@@H]2O[C@H](COP(=O)(O)OP(=O)(O)OC[C@H]3O[C@@H](n4cnc5c(N)ncnc54)[C@H](O)[C@@H]3O)[C@@H](O)[C@H]2O)C=CC1; assay: Inhibition of Escherichia coli FabI F203L mutant assessed as reduction in Km
[27] = compound: NC(=O)C1=CN([C@@H]2O[C@H](COP(=O)(O)OP(=O)(O)OC[C@H]3O[C@@H](n4cnc5c(N)ncnc54)[C@H](O)[C@@H]3O)[C@@H](O)[C@H]2O)C=CC1; assay: Inhibition of Escherichia coli FabI F203L mutant assessed as ratio of Kcat/Km
[28] = compound: NC(=O)C1=CN([C@@H]2O[C@H](COP(=O)(O)OP(=O)(O)OC[C@H]3O[C@@H](n4cnc5c(N)ncnc54)[C@H](O)[C@@H]3O)[C@@H](O)[C@H]2O)C=CC1; assay: Inhibition of Escherichia coli FabI Y156V mutant catalytic activity
[29] = compound: NC(=O)C1=CN([C@@H]2O[C@H](COP(=O)(O)OP(=O)(O)OC[C@H]3O[C@@H](n4cnc5c(N)ncnc54)[C@H](O)[C@@H]3O)[C@@H](O)[C@H]2O)C=CC1; assay: Inhibition of Escherichia coli FabI Y156V mutant assessed as reduction in Km
[30] = compound: NC(=O)C1=CN([C@@H]2O[C@H](COP(=O)(O)OP(=O)(O)OC[C@H]3O[C@@H](n4cnc5c(N)ncnc54)[C@H](O)[C@@H]3O)[C@@H](O)[C@H]2O)C=CC1; assay: Inhibition of Escherichia coli FabI Y156V mutant assessed as ratio of Kcat/Km

C=C1C(=O)OCC1C/C=C(\C)CC(=O)C=C(C)C (stereo not given) [ANTHECOTULIDE]
MIC [1]: 25 µg/mL (≈ 101 µM)
MIC [2]: 20.2 µg/mL (≈ 81.3 µM)

O=C(O[C@@H]1Cc2c(O)cc(O)cc2O[C@@H]1c1cc(O)c(O)c(O)c1)c1cc(O)c(O)c(O)c1 [EPIGALOCATECHIN GALLATE]
IC50 [3]: 5 µM

Oc1cc(Cl)ccc1Oc1ccc(Cl)cc1Cl [TRICLOSAN]
MIC [4]: 0.02 µg/mL (≈ 0.0691 µM)
MIC [5]: 0.02 µg/mL (≈ 0.0691 µM)
MIC [6]: > 1.28 µg/mL
MIC [7]: 0.512 µg/mL (≈ 1.77 µM)
MIC [8]: 2.05 µg/mL (≈ 7.07 µM)
MIC [9]: > 2.05 µg/mL
MIC [10]: 2.05 µg/mL (≈ 7.07 µM)
MIC [11]: 0.002 µg/mL (≈ 0.00691 µM)
Activity [12]: 0.4

CC(=O)c1cc2c(=O)c3c(C(=O)O)c(O)c(O)cc3oc2c(C(C)=O)c1-c1coc2cc(O)c(O)c(C(=O)O)c2c1=O [VINAXANTHONE]
MIC [13]: 32 µg/mL (≈ 55.5 µM)
IC50 [14]: 0.9 µM

B1: Enoyl-[acyl-carrier-protein] reductase [NADH] FabI (Escherichia coli K-12), P0AEK4 (protein)
chain: MGFLSGKRILVTGVASKLSIAYGIAQAMHREGAELAFTYQNDKLKGRVEEFAAQLGSDIVLQCDVAEDASIDTMFAELGKVWPKFDGFVHSIGFAPGDQLDGDYVNAVTREGFKIAHDISSYSFVAMAKACRSMLNPGSALLTLSYLGAERAIPNYNVMGLAKASLEANVRYMANAMGPEGVRVNAISAGPIRTLAASGIKDFRKMLAHCEAVTPIRRTVTIEDVGNSAAFLCSDLSAGISGEVVHVDGGFSIAAMNELELK
kcat [15]: 10.8 s⁻¹
Km [16]: 70.2 µM
kcat/Km [17]: 150000 M⁻¹ s⁻¹

B2: Enoyl-[acyl-carrier-protein] reductase [NADH] FabI (Escherichia coli K-12), P0AEK4 F203V (protein)
chain: MGFLSGKRILVTGVASKLSIAYGIAQAMHREGAELAFTYQNDKLKGRVEEFAAQLGSDIVLQCDVAEDASIDTMFAELGKVWPKFDGFVHSIGFAPGDQLDGDYVNAVTREGFKIAHDISSYSFVAMAKACRSMLNPGSALLTLSYLGAERAIPNYNVMGLAKASLEANVRYMANAMGPEGVRVNAISAGPIRTLAASGIKDVRKMLAHCEAVTPIRRTVTIEDVGNSAAFLCSDLSAGISGEVVHVDGGFSIAAMNELELK
kcat [18]: 0.38 s⁻¹
Km [19]: 44.2 µM
kcat/Km [20]: 9000 M⁻¹ s⁻¹

B3: Enoyl-[acyl-carrier-protein] reductase [NADH] FabI (Escherichia coli K-12), P0AEK4 G93V (protein)
chain: MGFLSGKRILVTGVASKLSIAYGIAQAMHREGAELAFTYQNDKLKGRVEEFAAQLGSDIVLQCDVAEDASIDTMFAELGKVWPKFDGFVHSIVFAPGDQLDGDYVNAVTREGFKIAHDISSYSFVAMAKACRSMLNPGSALLTLSYLGAERAIPNYNVMGLAKASLEANVRYMANAMGPEGVRVNAISAGPIRTLAASGIKDFRKMLAHCEAVTPIRRTVTIEDVGNSAAFLCSDLSAGISGEVVHVDGGFSIAAMNELELK
kcat [21]: 3.44 s⁻¹
Km [22]: 30.9 µM
kcat/Km [23]: 110000 M⁻¹ s⁻¹
Ki [24]: 4.1 µM

B4: Enoyl-[acyl-carrier-protein] reductase [NADH] FabI (Escherichia coli K-12), P0AEK4 F203L (protein)
chain: MGFLSGKRILVTGVASKLSIAYGIAQAMHREGAELAFTYQNDKLKGRVEEFAAQLGSDIVLQCDVAEDASIDTMFAELGKVWPKFDGFVHSIGFAPGDQLDGDYVNAVTREGFKIAHDISSYSFVAMAKACRSMLNPGSALLTLSYLGAERAIPNYNVMGLAKASLEANVRYMANAMGPEGVRVNAISAGPIRTLAASGIKDLRKMLAHCEAVTPIRRTVTIEDVGNSAAFLCSDLSAGISGEVVHVDGGFSIAAMNELELK
kcat [25]: 3.65 s⁻¹
Km [26]: 51.5 µM
kcat/Km [27]: 70000 M⁻¹ s⁻¹

B5: Enoyl-[acyl-carrier-protein] reductase [NADH] FabI (Escherichia coli K-12), P0AEK4 Y156V (protein)
chain: MGFLSGKRILVTGVASKLSIAYGIAQAMHREGAELAFTYQNDKLKGRVEEFAAQLGSDIVLQCDVAEDASIDTMFAELGKVWPKFDGFVHSIGFAPGDQLDGDYVNAVTREGFKIAHDISSYSFVAMAKACRSMLNPGSALLTLSYLGAERAIPNVNVMGLAKASLEANVRYMANAMGPEGVRVNAISAGPIRTLAASGIKDFRKMLAHCEAVTPIRRTVTIEDVGNSAAFLCSDLSAGISGEVVHVDGGFSIAAMNELELK
kcat [28]: 0.16 s⁻¹
Km [29]: 41.7 µM
kcat/Km [30]: 4000 M⁻¹ s⁻¹

Source: ChEMBL document CHEMBL4673265, “The food-grade antimicrobial xanthorrhizol targets the enoyl-ACP reductase (FabI) in Escherichia coli” (Bioorg Med Chem Lett, 2020)
